Measurements published in patent publication US20230226096A1 (Orna Therapeutics, Inc., priority 2020, published 2023).

What follows are molecules tested on HEK293 cells. Conditions: luminescence from secreted Gluc in supernatant 24 hours after transfection of HEK293 cells; circular RNA encoding Gluc with the named IRES (UTR truncated to 675 nt).
Format: cell-based, human

Molecule	Expression
Halastavi arva (1x mut) (nucleic acid) DNA: CTTGATTCTAACCTTGCCGTATGGTGCCCTAACGGGTTCATTTAATCATGCGATGAGGGTTGCTATACCGCATCCATTCTAAGGCGATTCAATGCTTCATTTAGGAATTTTGTTGACGATTAAAAGGTACCCCCACAAAAACAAAACCAATCTTACTTGATTTTCGTTTTAACTGACCACTGCGATCCCAAATTTTCGCCTTCTTATCAAAGTATGTTGTGTTCTTTGGGTGTACAACCTGAGAACTTGTCTACAACTACATATTACTCGAGGAAGAAATTCGGTTTAAGCCGTGCCTTCTCACGTTTAGTATATCTATCTGGACACACCTTCTTCATCTTCTAATCCCCATCTAGTCTCCTGATCAGAGACGTCGTTATTAACAAATAACCCCCCTTGTTAATAAGAGACAAAGTACAATCAAGCTAAGTTCTCTTGGAGTTCCTGTAGGAACTTAGCCATTGTGATAGAGTCATAAGTCTATGTGCATAGACAGCTCTAGCTCACCATTTCCTTCCCAACCCATCTTTTCATCAGCTTAACTCTATGAATCCGATGCAAAAACCATTCTAACATCTTATGGTGCTTTCCAAGCCAAATGAGAGCTCACTCTTTTGAGCCGCTATTTAATGGACAATAAACGTTTTATAGTGTACATCATATTGTAAAAACAAA	9.46E+04
Parechovirus A2 (nucleic acid, listed as Parechovirus sp.) DNA: GCCGTCGGGCCTTACACCCCGACTTGCTGAGTTTCTCTAGGAGAGTCCCTTTCCCAGCCAGAGGTGGCTGGTCAAACAATACCAAACGTAACTAAACATCTAAGATAACATAGCCCTATGCCTGGTCTCCACCAGTTGAAGGCATCTTGCAATAAAATGGGTGGATTAAGACGCTTAAAGCATGGAGTCAATTATCTTTTCTAACTAGTGATCTTCACTGGGTGGCAGATGGCGTGCCATAACTCTATTAGTGGGATACCACGCTCGTGGATCTTATGCCCACACAGCCATCCTCTAGTAAGTTTGCAAGGTGTCTGATGAGGCGTGGGAACTTATTGGAAATAATTACTTGCTGCGAAGCATCCTACTGCCAGCGGATCAACACCTGGTAACAGGTGCCCCTGGGGCCAAAAGCCACGGTTTAACAGACCCTTTAGGATTGGTTAAAACCTGAGTAATTATGGAAGATACTTAGTACCTACCAACTTGGTAACAGTGCAAACACTAGTTGTAAGGCCCACGAAGGATGCCCAGAAGGTACCCGCAGGTAACAAGAGACACTGTGGATCTGATCTGGGGCCACCTACCTCTATCCTGGTGAGGTGGTTAAAAAACGTCTAGTGGGCCAAACCCAGGGGGGATCCCTGGTTTCCTTATTTTAGTGTAAATGTCATT	1.80E+07
Parechovirus D (nucleic acid, Parechovirus D) DNA: ACATGGGGCAGGTGTGCTGTGCCAAGAGCAACACTACGGTGGCCGAGCCGATGGTTCGTCACCACGTAGTAGGACTCCGTAGTGCTTGGTTACGGCGGACGTAAGTCAGTTGAGTGATGTCTAAGTGGCAAACCATGAGTACATGGTAACCTTGTGTGGACTCGCGGGACGGAATTTCCTATCCCATTGACTCCTTGTAGCAAGGTGGGTATACCCAACCACAATGGCAGCACCCTGGGTGGGAACCCAGGGGCCTGGATTAGTATCCAGTCACACAGCCTGATAGGGTGGCGGCTCAGCCACTGACCAGCGTCTCTAAATAATTGTGAGCTGTTCATGCACC	3.10E+05
HAV FH1 (nucleic acid, Hepatovirus A) DNA: CTTGATACCTCACCGCCGTTTGCCTAGGCTATAGGCTAAATTTCCCTTTCCCTGTCCTTTCCCTATTTCCTTTTGTTTTGTTTGTAAATATTAATTCCTGCAGGTTCAGGGTTCTTTAATCTGTTTCTCTATAAGAACACTCAATTTTCACGCTTTCTGTCTCCTTTCTTCCAGGGCTCTCCCCTTGCCCTAGGCTCTGGCCGTTGCGCCCGGCGGGGTCAACTCCATGATTAGCATGGAGCTGTAGGAGTCTAAATTGGGGACGCAGATGTTTGGGACGTCGCCTTGCAGTGTTAACTTGGCTTTCATGAACCTCTTTGATCTTCCACAAGGGGTAGGCTACGGGTGAAACCTCTTAGGCTAATACTTCTATGAAGAGATGCCTTGGATAGGGTAACAGCGGCGGATATTGGTGAGTTGTTAAGACAAAAACCATTCAACGCCGAAGGACTGGCTCTCATCCAGTGGATGCATTGAGGGAATTGATTGTCAGGGCTGTCTCTAGGTTTAATCTCAGACCTCTCTGTGCTTAGGGCAAACACTATTTGGCCTTAAATGGGATCCTGTGAGAGGGGGTCCCTCCATTGACAGCTGGACTGTTCTTTGGGGCCTTATGTGGTGTTTGCCTCTGAGGTACTCAGGGGCATTTAGGTTTTTCCTCATTCTTAAACAATA	1.24E+05
Parechovirus F (nucleic acid, Parechovirus F) DNA: GGTCGGGGAGATGTGTTCATGATCGGTTAACACCATCATGGATCATCTCTCCCCGACCTCTTTTTGACCCAGCTATGGGTTAAATAGTACTTTTCTTTTCTCTTTTGCTTTCTTTTGTGTTTTGTTTGTTTTGCAACATATAACAAGCATTTTATCAGTATTAGTGTCTGCAACTGTATAACAAGCAAGGTGGAGCAATCATGCGAGTATATCTCAATTGAATTGTGACACACAAGTGTGCACTATGTGGAATAAATGCCATTTTGGCCAAACCTGGTTAGCCAGACCAGTAGTAGGACAATTTGGCACCCTTAGTGGGCGCGACCTAGATGCTAGGGATGAGCAAACCTATTTCCCCTGAGTACAGGGGCTCTCCTTCACCTCTACATTTTGGACCTCTTTTTGAGTATCCTCGATAGAAGGTGAAGTGACGGTGTACCGGATGGTTAATTGATCTCATTGCTGGGTGACAGCCCGCTAGGACCAGGCAGCATCTTTGTATGGACCTGTACATGTAAC	6.56E+05
Ljungan Virus 87-012 (nucleic acid) DNA: CTCATTGCCCACACCTGGTTGGTTCCCAGGTTCATACAATAACCATCAATAAACTTTTAACATCTAAGATAGTATTATCCCATACTAGACTGGACGAAGCCGCTTGGAATAAGTCTAGTCTTATCTTGTATGTGTCCTGCACTGAACTTGTTTCTGTCTCTGGAGTGCTCTACACTTCAGTAGGGGCTGTACCCGGGCGGTCCCACTCTTCACAGGAATCTGCACAGGTGGCTTTCACCTCTGGACAGTGCATTCCACACCCGCTCCACGGTAGAAGATGATGTGTGTCTTTGCTTGTGAAAAGCTTGTGAAAATCGTGTGTAGGCGTAGCGGCTACTTGAGTGCCAGCGGATTACCCCTAGTGGTAACACTAGCCTCTGGGCCCAAAAGGCATGTCATTTGACCACTCAGGTACACAACCCCAGTGATGCACACGCTTAGTAATGGCTTAGTAACAAACATTGATTGATCATTTGAAAGCTGTTAGGAGGTTTAGGTATGACGGGCTGAAGGATGCCCTGAAGGTACCCATAGGTAACCTTAAGCGACTATGGATCTGATCAGGGGCCCACCATGTAACACATGGGTAGAAGTCTTCGGACCTTGGGTTAAAAAACGTCTAGGCCCGCCCCCCACAGGGATGTGGGGTTTCCCTTATAACCCCAATATTGTATA	2.00E+06
Parechovirus A3 (nucleic acid, listed as Parechovirus sp.) DNA: AGAGTCCTTTTCCCAGCCAGAGGTGGCTGGTTAAATAATACCTACTGTAACAAAACATCTAAGATGTAACAACCACACACCTGGTCTCCACTGGCCGAAGGCAACTAGCAATAAGGCAGGTGGGTTCAGACGCTTAAAGTGTGTTGTACATATTCTTTTCTAACCTGTGTTTTACACAGGGTGGCAGATGGCGTGCCATAACTCTAACAGTGAGATACCACGCTTGTGGACCTTATGCTCACACAGCCATCCTCTAGTAAGTTTGTAAGATGTCTGATGACGTGTGGGAACCTGTTGGAGATAACAGTTTGCTGCAAAGCATCCCACTGCCAGCGGATCTACATCTGGTAACAGATGCCTCTGGGGCCAAAAGCCAAGGTTTAACAGACCCTTTGGGATTGGTTCAAACCTGAACTGTTATGGAAGACATTTAGTACCTGCTGATTTGGTAGTAATGCAAACACTAGTTGTAAGGCCCACGAAGGATGCCCAGAAGGTACCCGTAGGTAACAAGTGGCACTATGGATCTGATCTGGGGCCAGCTACCTCTATCTTGGTGAGTTGGTTAAAAAACGTCTAGTGGGCCAAACCCAGGGGGGATCCTGGTTTCTTTTTAATTTAAGTAATCACT	3.58E+06
HAV HM175 (nucleic acid, Hepatovirus A) DNA: CGCCGTTTGCCTAGGCTATAGGCTAAATTTTCCCTTTCCCTTTTCCCTTTCCTATTCCCTTTGTTTTGCTTGTAAATATTGATTTGTAAATATTGATTCCTGCAGGTTCAGGGTTCTTAAATCTGTTTCTCTATAAGAACACTCATTTCACGCTTTCTGTCTTCTTTCTTCCAGGGCTCTCCCCTTGCCCTAGGCTCTGGCCGTTGCGCCCGGCGGGGTCAACTCCATGATTAGCATGGAGCTGTAGGAGTCTAAATTGGGGACACAGATGTTTGGAACGTCACCTTGCAGTGTTAACTTGGCTTTCATGAATCTCTTTGATCTTCCACAAGGGGTAGGCTACGGGTGAAACCTCTTAGGCTAATACTTCTATGAAGAGATGCCTTGGATAGGGTAACAGCGGCGGATATTGGTGAGTTGTTAAGACAAAAACCATTCAACGCCGGAGGACTGACTCTCATCCAGTGGATGCATTGAGTGGATTGACTGTCGGGGCTGTCTTTAGGCTTAATTCCAGACCTCTCTGTGCTTGGGGCAAACATCATTTGGCCTTAAATGGGATTCTGTGAGAGGGGATCCCTCCATTGCCAGCTGGACTGTTCTTTGGGGCCTTATGTGGTGTTTGCCGCTGAGGTACTCAGGGGCATTTAGGTTTTTCCTCATTCTTAAATAATA	4.96E+05
Parechovirus C (nucleic acid, Parechovirus C) DNA: CGGTCATCCCCCTTTCCCCACAGCCGGTGTGGGTTCTAATCGGCTCCTACTAAACACCTAAGCATCACTGCGCCTCTATCTCTCCTATCCACAGGTCTAAGACGCTTGGAATAAGACATGTGGGTGCAATAGGAAGATTAGCTAGTCCAATCTCTCCTTCCAGCTACGCTTCTCCCTTCGATGAGCGTAGGGGGGGCCCCCACCTCCCTCATCTCTGGATAGGGCTCTTGCTACGGGGCTTTCCCGTCTGGACCAGCAGGCCCACTGGTGCGCTTCCATTCAAGTTTAGTGTGCATTACTGTCTGAAATATTGCTTTGCTAGGATCTAGTGTAGCGACCTGCATATTGCCAGCGGACTTCCCCACATGGTAACATGTGCCTCTGGGCCCAAAAGGCATGTCTTTGACCGTATGCAGTACAACCCCAGTATAGGTCCTTTCTATGGCAGTATGGATCTCAGTGATGAGTCTATACAGAATATGGAAGTGGTTCGGATATGTCAGCCCGAAGGATGCCCAGAAGGTACCCGCAGATAACCTTAAGAGACTGTGGATCTGATCTGGGGCCCACCACCTTCGGGTGGGTAGAAGCTAACCATGCCTTGGGTTAAAAAACGTCTAAGGGCTGACCAGACCCGGGGGATCCGGGTTTTCCCTATCTTGACCTACTCTAATC	1.24E+06
